Data: US20250313625A1 (ELPISCIENCE SUZHOU BIOPHARMA, published 2025)

Legend:
[1] = target: T1, mFc tagged human LAG3 ECD recombinant protein (human, UniProt P18627 23-450); assay: competitive FACS: mFc-LAG3 ECD binding to Raji cells (MHC II)
T1 construct: extracellular domain; purchased from Biointron; not shown: mouse IgG Fc (mFc) tag
T1 sequence (looked up): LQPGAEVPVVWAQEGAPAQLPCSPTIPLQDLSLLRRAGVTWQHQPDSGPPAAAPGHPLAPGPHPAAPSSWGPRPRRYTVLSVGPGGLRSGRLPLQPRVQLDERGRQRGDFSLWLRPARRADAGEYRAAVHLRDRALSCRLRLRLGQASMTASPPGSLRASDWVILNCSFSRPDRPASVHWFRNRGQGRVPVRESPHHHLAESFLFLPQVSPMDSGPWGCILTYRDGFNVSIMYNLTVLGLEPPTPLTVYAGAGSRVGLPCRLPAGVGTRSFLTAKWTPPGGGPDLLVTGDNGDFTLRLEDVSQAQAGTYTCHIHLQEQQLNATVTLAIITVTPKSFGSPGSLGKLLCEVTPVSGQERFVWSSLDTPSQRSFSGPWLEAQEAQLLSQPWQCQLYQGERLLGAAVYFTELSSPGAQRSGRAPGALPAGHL
Experimental: Activity of the purified chimeric antibodies to block LAG3 and MHC II interaction was determined by competitive FACS assay. […] After washing, dye labeled anti-mouse Fc 2nd antibody (Sigma) was added and incubated at 37° C. for 1 hour. Fluorescence intensity was detected.

[2] = target: T2, human LAG3 ECD recombinant protein (plate coated, tag not stated) (human, UniProt P18627 23-450); assay: competitive ELISA format I: His-FGL1 binding to coated LAG3 ECD
T2 construct: extracellular domain
T2 sequence (looked up): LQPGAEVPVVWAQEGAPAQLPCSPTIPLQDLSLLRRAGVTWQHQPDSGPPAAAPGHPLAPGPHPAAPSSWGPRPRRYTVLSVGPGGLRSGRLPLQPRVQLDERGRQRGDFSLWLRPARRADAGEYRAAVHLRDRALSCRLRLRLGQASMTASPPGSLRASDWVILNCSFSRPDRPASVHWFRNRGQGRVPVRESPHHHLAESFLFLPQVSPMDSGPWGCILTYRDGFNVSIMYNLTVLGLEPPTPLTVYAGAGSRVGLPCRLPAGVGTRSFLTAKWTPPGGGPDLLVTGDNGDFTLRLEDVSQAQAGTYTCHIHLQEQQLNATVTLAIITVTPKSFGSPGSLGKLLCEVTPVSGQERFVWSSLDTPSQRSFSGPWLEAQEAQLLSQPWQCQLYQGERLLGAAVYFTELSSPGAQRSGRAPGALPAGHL
Experimental: After washing, HRP labeled anti-His 2nd antibody (Sigma) was added and incubated at 37° C. for 1 hour. Then, 100 μl/well of TMB solution (Biotechnology) was added. After incubation for 15 minutes at room temperature, the reaction was stopped by the addition of 50 μl of 1N HCl. OD 450 nm was read. […] After washing, HRP labeled anti-SA 2nd antibody (Sigma) was added and incubated at 37° C. for 1 hour. Then, 100 μl/well of TMB solution (Biotechnology) was added. After incubation for 15 minutes at room temperature, the reaction was stopped by the addition of 50 μl of 1N HCl. OD 450 nm was read. […] The competition assay of format III is a competitive FACS assay. […] After washing, dye labeled anti-His 2nd antibody (Sigma) was added and incubated at 37° C. for 1 hour. Fluorescence intensity was detected.

[3] = target: T3, human LAG3, full length, stably expressed on cells (human, UniProt P18627 23-525); assay: FACS on 293F cells stably expressing human LAG3
T3 construct: whole, on cells; also called CHOK1-human LAG3
T3 sequence (looked up): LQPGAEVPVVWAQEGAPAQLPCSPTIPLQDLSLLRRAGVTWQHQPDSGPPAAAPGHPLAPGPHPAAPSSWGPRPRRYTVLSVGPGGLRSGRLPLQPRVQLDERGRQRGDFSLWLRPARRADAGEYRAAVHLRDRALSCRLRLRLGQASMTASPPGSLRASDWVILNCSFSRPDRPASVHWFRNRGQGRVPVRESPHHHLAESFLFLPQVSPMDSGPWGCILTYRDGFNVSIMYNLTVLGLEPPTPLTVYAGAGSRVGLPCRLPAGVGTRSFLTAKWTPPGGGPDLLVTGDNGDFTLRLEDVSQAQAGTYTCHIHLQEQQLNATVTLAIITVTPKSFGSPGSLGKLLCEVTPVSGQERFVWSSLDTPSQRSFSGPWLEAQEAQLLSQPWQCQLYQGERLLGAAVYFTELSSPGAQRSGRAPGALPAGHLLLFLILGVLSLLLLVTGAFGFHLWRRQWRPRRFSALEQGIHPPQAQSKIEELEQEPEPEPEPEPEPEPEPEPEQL
Experimental: (§1) Briefly the antibodies were incubated with 2×10⁵ target cells at 4° C. for 1 hour. After washing, fluorescence labeled anti-mouse IgG 2nd antibody (Life Technologies) was added and incubated at 4° C. for 1 hour. Geometric median fluorescence intensity (MFI) was detected and EC₅₀ was calculated using GraphPad Prism9.0.
MFI was detected and EC₅₀ was calculated using GraphPad Prism9.0.

[4] = target: T4, mouse LAG3, full length, stably expressed on CHOK1 cells (mouse, UniProt Q61790 24-521); assay: FACS on CHOK1 cells expressing mouse LAG3
T4 construct: whole, on cells
T4 sequence (looked up): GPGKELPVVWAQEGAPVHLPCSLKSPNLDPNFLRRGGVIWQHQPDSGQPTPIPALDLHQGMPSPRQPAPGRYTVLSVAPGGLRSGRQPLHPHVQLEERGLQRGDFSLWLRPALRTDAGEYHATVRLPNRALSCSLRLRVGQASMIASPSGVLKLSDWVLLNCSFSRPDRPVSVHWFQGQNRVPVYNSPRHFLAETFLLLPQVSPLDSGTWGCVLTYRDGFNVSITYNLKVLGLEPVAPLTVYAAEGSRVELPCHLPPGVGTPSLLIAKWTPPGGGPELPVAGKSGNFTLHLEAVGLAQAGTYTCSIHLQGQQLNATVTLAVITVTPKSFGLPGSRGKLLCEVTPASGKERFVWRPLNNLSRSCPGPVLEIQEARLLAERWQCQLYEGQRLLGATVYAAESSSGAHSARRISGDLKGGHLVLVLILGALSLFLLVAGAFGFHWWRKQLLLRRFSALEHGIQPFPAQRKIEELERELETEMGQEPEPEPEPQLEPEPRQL
Experimental: as §1

[5] = target: T5, hFc tagged human LAG3 D1-D2 recombinant protein (human, UniProt P18627 23-261); assay: ELISA, coated hFc-hLAG3 D1-D2
T5 construct: range 23-261; generated by Chempartner; also called hLAG3 D1-D2; not shown: human IgG Fc tag
T5 sequence (looked up): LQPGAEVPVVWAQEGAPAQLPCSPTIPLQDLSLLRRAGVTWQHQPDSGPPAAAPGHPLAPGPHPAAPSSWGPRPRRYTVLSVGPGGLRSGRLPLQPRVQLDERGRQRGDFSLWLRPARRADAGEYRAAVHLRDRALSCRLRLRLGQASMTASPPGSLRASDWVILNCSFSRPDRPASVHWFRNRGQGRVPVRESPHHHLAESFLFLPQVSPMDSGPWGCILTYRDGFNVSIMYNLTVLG
Experimental: Binding activity of the purified hybridoma antibodies against human LAG3 was detected by ELISA assay using hFc tagged human LAG3 D1-D2 recombinant protein. Briefly the antibodies were incubated with ELISA microplate coated antigens at 37° C. for 1 hour. After washing, horseradish peroxidase (HRP) labeled anti-human IgG 2nd Ab (Sigma) was added and incubated at 37° C. for 1 hour. Then, 100 μl/well of TMB solution (Biotechnology) was added. After incubation for 15 minutes at room temperature, the reaction was stopped by the addition of 50 μl of 1N HCl. OD 450 nm was read and EC₅₀ was calculated using GraphPad Prism9.0.

[6] = target: T6, hFc tagged human LAG3 ECD recombinant protein (human, UniProt P18627 23-450); assay: competitive FACS: hFc-LAG3 ECD binding to Raji cells (MHC II)
T6 construct: range 23-450; also called biotin labelled hFc tagged human LAG3 ECD; not shown: human IgG Fc tag
T6 sequence (looked up): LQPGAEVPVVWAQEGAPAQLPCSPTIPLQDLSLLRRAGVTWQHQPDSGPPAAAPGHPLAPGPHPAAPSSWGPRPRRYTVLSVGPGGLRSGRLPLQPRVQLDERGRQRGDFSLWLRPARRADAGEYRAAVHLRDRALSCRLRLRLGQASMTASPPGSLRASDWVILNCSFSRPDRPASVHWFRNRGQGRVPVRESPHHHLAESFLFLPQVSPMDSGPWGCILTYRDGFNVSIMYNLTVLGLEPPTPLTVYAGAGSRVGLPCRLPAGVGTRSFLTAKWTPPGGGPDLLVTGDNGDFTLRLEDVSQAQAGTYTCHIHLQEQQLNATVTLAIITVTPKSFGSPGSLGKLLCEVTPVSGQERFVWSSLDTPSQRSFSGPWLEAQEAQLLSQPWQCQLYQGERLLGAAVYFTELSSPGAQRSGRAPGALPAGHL
Experimental: Competitive FACS assay was used to determine whether the purified hybridoma antibodies can block LAG3 and MHC II interaction. […] After washing, dye labeled anti-human Fc 2nd antibody (Sigma) was added and incubated at 37° C. for 1 hour. Fluorescence intensity was detected.

[7] = target: T6, hFc tagged human LAG3 ECD recombinant …; assay: competitive ELISA: excess competitor, biotin hFc-LAG3 ECD, coated BMS-986016
Experimental: (§2) Competitive ELISA assay was used for epitope binning of the purified hybridoma antibodies. […] After washing, HRP labeled anti-streptavidin (SA) 2nd antibody (Sigma) was added and incubated at 37° C. for 1 hour. Then, 100 μl/well of TMB solution (Biotechnology) was added. After incubation for 15 minutes at room temperature, the reaction was stopped by the addition of 50 μl of 1N HCl. OD 450 nm was read. Competition ratio was calculated.

[8] = target: T6, hFc tagged human LAG3 ECD recombinant …; assay: competitive ELISA: excess competitor, biotin hFc-LAG3 ECD, coated BAP-050
Experimental: as §2

[9] = target: T3, human LAG3, full length, stably …; assay: FACS on 293F-human LAG3 cells
Experimental: as §1

B1: 024c (antibody, human IgG4, V domains shown)
VH: EVQLQQSGPELVKPGASVKISCKASGYTFTDYYMNWVKQSHGKRLEWIGDIDPNNGGTSYNQKFKGKATLTVDKSSSSAYMDLRSLTSEDSAVYYCARAGSYYYGSSYVEYFDVWGTGTTVTVSS
VL: DIQMTQSPASLSASVGETVTITCRASGNIHNYLAWYQQKQGASPQLLVYNAKTLADGVPSRFSGSGSGTEFSLKINSLQPEDFGNYYCQHFWNTPYTFGGGTKLEIK
notes: human IgG4 S228P / kappa chimeric antibody; also called chimeric antibody 024; not shown: human kappa light chain constant region (pcDNA3.4-hIgGk vector)
IC50 [1]: 3.7 nM
TOP blocking (%) [1]: 96.9%
Blocking ratio at 66.7 nM (%) [2]: 39.4%
EC50 [3]: 1.1 nM
TOP MFI [3]: 346

B2: 015c (antibody, human IgG4, V domains shown)
VH: EVQLQQSGPVLVKPGASVKLSCKASGFTFTDYYMNWVKLSHGKSLEWIGVINPFNGDTAYKQKFKGKATLTVDKSSSTAYMELNSLTSEDSAVYYCARDDGYYLYYFDSWGQGTTLTVSS
VL: DIQMTQSPSSLSASLGERVSLTCRASQDIGSRLNWLQQEPDGTIKRLIYATSSLDSGVPKRFSGSRSGSDYSLTISSLDSEDFVVYYCLQYASSPPTFGAGTKLELK
notes: human IgG4 S228P / kappa chimeric antibody; also called chimeric antibody 015; not shown: human kappa light chain constant region (pcDNA3.4-hIgGk vector)
IC50 [1]: 5.4 nM
TOP blocking (%) [1]: 77.1%
Blocking ratio at 66.7 nM (%) [2]: 43.6%
EC50 [3]: 1.9 nM
TOP MFI [3]: 296

B3: Antibody 015 (antibody, V domains shown)
VH: EVQLQQSGPVLVKPGASVKLSCKASGFTFTDYYMNWVKLSHGKSLEWIGVINPFNGDTAYKQKFKGKATLTVDKSSSTAYMELNSLTSEDSAVYYCARDDGYYLYYFDSWGQGTTLTVSS
VL: DIQMTQSPSSLSASLGERVSLTCRASQDIGSRLNWLQQEPDGTIKRLIYATSSLDSGVPKRFSGSRSGSDYSLTISSLDSEDFVVYYCLQYASSPPTFGAGTKLELK
notes: mouse hybridoma antibody
binding result [4]: no binding
EC50 [5]: 0.25 nM
IC50 [6]: 2.7 nM
TOP blocking (%) [6]: 94.3%
% competition [7]: 10%
% competition [8]: 1.6%
EC50 [9]: 2.09 nM
